Data taken from PMC11083479, “A Multi-Faceted Binding Assessment of Aptamers Targeting the SARS-CoV-2 Spike Protein”.
Where two headings read alike, the source gives them in different places.

Assays:
[1] = target: SARS-CoV-2 spike S1, WT, His-tag (SARS-CoV-2 (WT), UniProt P0DTC2 16-685); experiment: BLI; conditions: protein: recombinant; tags: His; label: with or without biotin; SA-ATTO647N in flow cytometry
[2] = target: SARS-CoV-2 spike RBD, WT, C-tag (SARS-CoV-2 (WT), UniProt P0DTC2 319-591); experiment: BLI; BLI: PBS pH 7.4, 1 mM MgCl2 ([…]; flow cytometry 25 C ([…]; conditions: protein: recombinant; tags: C-tag; label: with or without biotin; SA-ATTO647N in flow cytometry
[3] = target: T1, SARS-CoV-2 trimeric spike, WT, His-tag (SARS-CoV-2 (WT), UniProt P0DTC2 14-1208); experiment: ELONA; abolished by 0.1 mg/mL dextran sulfate; conditions: protein: recombinant, tags: 8xHis (flow cytometry), chain copies: 3, label: with or without biotin, SA-ATTO647N in flow cytometry
[4] = target: SARS-CoV-2 trimeric spike, WT, C-tag (SARS-CoV-2 (WT), UniProt P0DTC2 16-1208); conditions: protein: recombinant; tags: C-tag; chain copies: 3; label: with or without biotin; SA-ATTO647N in flow cytometry
[5] = target: chemokine CCL17, untagged (human, UniProt Q92583 24-94); experiment: ELONA; 200 nM aptamer; BLI: PBS pH 7.4, 1 mM MgCl2 (MSA aptamers: 50 mM HEPES pH 7.4, 6 mM KCl, 150 mM NaCl, 2.5 mM CaCl2, 2.5 mM MgCl2), 0.1 mg/mL BSA, 0.02% Tween-20; ELONA 25 C in; conditions: protein: recombinant; tags: none; label: with or without biotin; SA-ATTO647N in flow cytometry
Sequence of chemokine CCL17, untagged (Q92583 24-94): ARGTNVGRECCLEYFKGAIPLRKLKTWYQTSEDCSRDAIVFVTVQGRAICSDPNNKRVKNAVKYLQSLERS

ACE2, His-tag [6] = target: T2, ACE2, His-tag (UniProt Q9BYF1 18-740); experiment: as above; conditions: protein: recombinant; tags: His; label: with or without biotin; SA-ATTO647N in flow cytometry
T2 sequence (Q9BYF1 18-740): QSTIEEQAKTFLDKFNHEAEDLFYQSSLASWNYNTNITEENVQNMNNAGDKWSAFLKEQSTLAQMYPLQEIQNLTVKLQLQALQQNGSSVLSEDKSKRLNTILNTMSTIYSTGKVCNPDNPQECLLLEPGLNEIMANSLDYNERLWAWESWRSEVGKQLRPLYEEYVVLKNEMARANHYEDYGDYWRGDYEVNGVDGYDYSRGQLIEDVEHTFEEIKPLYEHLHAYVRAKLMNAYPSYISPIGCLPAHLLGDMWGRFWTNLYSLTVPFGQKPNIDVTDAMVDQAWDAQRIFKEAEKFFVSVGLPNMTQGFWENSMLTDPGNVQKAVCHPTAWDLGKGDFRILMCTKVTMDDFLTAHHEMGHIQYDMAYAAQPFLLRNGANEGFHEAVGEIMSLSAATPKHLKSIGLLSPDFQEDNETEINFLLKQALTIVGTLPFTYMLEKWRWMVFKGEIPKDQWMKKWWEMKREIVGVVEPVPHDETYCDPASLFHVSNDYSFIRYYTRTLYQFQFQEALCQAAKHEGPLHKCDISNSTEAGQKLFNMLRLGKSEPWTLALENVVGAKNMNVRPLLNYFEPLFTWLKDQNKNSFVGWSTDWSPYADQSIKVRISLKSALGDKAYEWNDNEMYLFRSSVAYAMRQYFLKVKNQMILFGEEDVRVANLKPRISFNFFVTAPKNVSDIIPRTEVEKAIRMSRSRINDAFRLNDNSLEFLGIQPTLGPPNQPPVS

[7] = target: SARS-CoV-2 spike S1, WT, His-tag (SARS-CoV-2 (WT), UniProt P0DTC2 16-685); experiment: BLI; conditions: protein: recombinant; tags: His
[8] = target: SARS-CoV-2 spike RBD, WT, His-tag (SARS-CoV-2 (WT), UniProt P0DTC2 319-541); experiment: BLI; BLI: PBS pH 7.4, 1 mM MgCl2 ([…]; flow cytometry 25 C ([…]
[9] = target: SARS-CoV-2 trimeric spike, WT, C-tag (SARS-CoV-2 (WT), UniProt P0DTC2); experiment: as above; conditions: protein: recombinant; tags: C-tag
[10] = target: T3, SARS-CoV-2 trimeric spike, WT, His-tag (SARS-CoV-2 (WT), UniProt P0DTC2); experiment: ELONA; conditions: protein: recombinant; tags: 8xHis (flow cytometry); His
[11] = target: SARS-CoV-2 spike RBD, WT, C-tag (SARS-CoV-2 (WT), UniProt P0DTC2 319-591); experiment: BLI; BLI: PBS pH 7.4, 1 mM MgCl2 ([…]; flow cytometry 25 C ([…]
[12] = target: T3, SARS-CoV-2 trimeric spike, WT, His-tag; experiment: flow cytometry; conditions: protein: recombinant, tags: 8xHis (flow cytometry)
[13] = target: T3, SARS-CoV-2 trimeric spike, WT, His-tag; experiment: flow cytometry; 37 C; non-binding control; conditions: protein: recombinant, tags: 8xHis (flow cytometry)
[14] = target: SARS-CoV-2 spike RBD, WT, His-tag (SARS-CoV-2 (WT), UniProt P0DTC2 319-541); experiment: BLI; BLI: PBS pH 7.4, 1 mM MgCl2 ([…]; flow cytometry 25 C ([…]; conditions: protein: recombinant; tags: His; label: with or without biotin; SA-ATTO647N in flow cytometry
[15] = target: T1, SARS-CoV-2 trimeric spike, WT, His-tag; conditions: protein: recombinant, tags: 8xHis (flow cytometry), chain copies: 3, label: with or without biotin, SA-ATTO647N in flow cytometry
[16] = target: T3, SARS-CoV-2 trimeric spike, WT, His-tag; experiment: BLI; conditions: protein: recombinant; tags: 8xHis (flow cytometry); His
ACE2, His-tag [17] = target: T2, ACE2, His-tag; experiment: ELONA; conditions: protein: recombinant; tags: His; label: with or without biotin; SA-ATTO647N in flow cytometry

Row | Binder | binding result [1] | binding result [2] | binding result [7] | binding result [8] | binding result [9] | other results
1 | CTTCCACGGGTTTGGCGTCGGGCCTGGCGGGGGGATAGTGCGGTGGAAG (ssDNA) [MSA5-T4] | binds | no binding |  |  |  | binding result [3]: binds; binding result [4]: no binding; binding result [5]: no binding; binding result (ACE2, His-tag [6]): no binding
2 | CAACCCATGGTAGGTATTGCTTGGTAGGGATAGTGGGCTTG (ssDNA) [SP6.41] |  |  | no binding | no binding | binds | binding result [10]: binds
3 | RBD-PB6 (XNA, 2'-F-modified RNA) RNA: GGGGCCACCAACGACAUUUGUAAUUCCUGGACCGAUACUUCCGUCAGGACAGAGGUUGAUAUAAAUAGUGCCCAUGGAUCC |  |  | binds | binds | binds | binding result [11]: binds; binding result [12]: binds
4 | CCCATGGTAGGTATTGCTTGGTAGCGATAGTGGG (ssDNA) [SP6.34C] |  |  |  |  |  | binding result [13]: no binding
5 | CGCAGCACCCAAGAACAAGGACTGCTTAGGATTGCGATAGGTTCGG (ssDNA) [CoV2-6C3] | binds | no binding |  |  |  | binding result [14]: binds; binding result [15]: binds; binding result [4]: binds
6 | Aptamer-1 (ssDNA) DNA: ATCCAGAGTGACGCAGCATCGAGTGGCTTGTTTGTAATGTAGGGTTCCGGTCGTGGGTTGGACACGGTGGCTTAGT |  |  | binds | binds | no binding | binding result [16]: binds
7 | Aptamer-2 (ssDNA) DNA: ATCCAGAGTGACGCAGCAATTACCGATGGCTTGTTTGTAATGTAGGGTTCCGTCGGATTGGACACGGTGGCTTAGT |  |  | binds | binds | no binding | binding result [16]: binds
8 | nCoV-S1-A2 (ssDNA) DNA: AGCAGCACAGAGGTCAGATGGCAGCTAAGCAGGCGGCTCACAAAACCATTCGCATGCGGCCCTATGCGTGCTACCGTGAA |  |  |  | no binding |  | 
9 | CoV2-RBD-1C (ssDNA) DNA: CAGCACCGACCTTGTGCTTTGGGAGTGCTGGTCCAAGGGCGTTAATGGACA | binds | no binding |  |  |  | binding result [14]: binds; binding result [15]: binds
10 | CoV2-RBD-4C (ssDNA) DNA: ATCCAGAGTGACGCAGCATTTCATCGGGTCCAAAAGGGGCTGCTCGGGATTGCGGATATGGACACGT | binds | no binding |  |  |  | binding result [14]: binds; binding result [15]: binds; binding result (ACE2, His-tag [17]): binds
11 | TCCGGTTAATTTATGCTCTACCCGTCCACCTACCGGA (ssDNA) [MSA1-T3] |  |  |  | no binding | no binding | binding result [16]: binds
